Patent US20230151068A1

B1: K09V variant of SEQ ID NO: 1 (designed binder)
chain: GSPDEYIERAVECCKKGDIQCCLRYFEESGDPNVMLICLFCP
B2: A08W variant of SEQ ID NO: 1 (designed binder)
chain: GSPDEYIERWKECCKKGDIQCCLRYFEESGDPNVMLICLFCP
B3: I05W variant of SEQ ID NO: 1 (designed binder)
chain: GSPDEYWERAKECCKKGDIQCCLRYFEESGDPNVMLICLFCP
B4: K09W variant of SEQ ID NO: 1 (designed binder)
chain: GSPDEYIERAWECCKKGDIQCCLRYFEESGDPNVMLICLFCP
B5: E10V variant of SEQ ID NO: 1 (designed binder)
chain: GSPDEYIERAKVCCKKGDIQCCLRYFEESGDPNVMLICLFCP
B6: I05F variant of SEQ ID NO: 1 (designed binder)
chain: GSPDEYFERAKECCKKGDIQCCLRYFEESGDPNVMLICLFCP
B7: E03F variant of SEQ ID NO: 1 (designed binder)
chain: GSPDFYIERAKECCKKGDIQCCLRYFEESGDPNVMLICLFCP
B8: D02W variant of SEQ ID NO: 1 (designed binder)
chain: GSPWEYIERAKECCKKGDIQCCLRYFEESGDPNVMLICLFCP
B9: K09F variant of SEQ ID NO: 1 (designed binder)
chain: GSPDEYIERAFECCKKGDIQCCLRYFEESGDPNVMLICLFCP
B10: R07F variant of SEQ ID NO: 1 (designed binder)
chain: GSPDEYIEFAKECCKKGDIQCCLRYFEESGDPNVMLICLFCP
B11: P01F variant of SEQ ID NO: 1 (designed binder)
chain: GSFDEYIERAKECCKKGDIQCCLRYFEESGDPNVMLICLFCP
B12: Y04W variant of SEQ ID NO: 1 (designed binder)
chain: GSPDEWIERAKECCKKGDIQCCLRYFEESGDPNVMLICLFCP
B13: P01W variant of SEQ ID NO: 1 (designed binder)
chain: GSWDEYIERAKECCKKGDIQCCLRYFEESGDPNVMLICLFCP
B14: E06F variant of SEQ ID NO: 1 (designed binder)
chain: GSPDEYIFRAKECCKKGDIQCCLRYFEESGDPNVMLICLFCP
B15: E10F variant of SEQ ID NO: 1 (designed binder)
chain: GSPDEYIERAKFCCKKGDIQCCLRYFEESGDPNVMLICLFCP
B16: A08F variant of SEQ ID NO: 1 (designed binder)
chain: GSPDEYIERFKECCKKGDIQCCLRYFEESGDPNVMLICLFCP
B17: E06W variant of SEQ ID NO: 1 (designed binder)
chain: GSPDEYIWRAKECCKKGDIQCCLRYFEESGDPNVMLICLFCP
B18: R07W variant of SEQ ID NO: 1 (designed binder)
chain: GSPDEYIEWAKECCKKGDIQCCLRYFEESGDPNVMLICLFCP
B19: E10W variant of SEQ ID NO: 1 (designed binder)
chain: GSPDEYIERAKWCCKKGDIQCCLRYFEESGDPNVMLICLFCP
B20: E03W variant of SEQ ID NO: 1 (designed binder)
chain: GSPDWYIERAKECCKKGDIQCCLRYFEESGDPNVMLICLFCP
B21: Y04F variant of SEQ ID NO: 1 (designed binder)
chain: GSPDEFIERAKECCKKGDIQCCLRYFEESGDPNVMLICLFCP
B22: D02F variant of SEQ ID NO: 1 (designed binder)
chain: GSPFEYIERAKECCKKGDIQCCLRYFEESGDPNVMLICLFCP

Molecular target: biotinylated His-Avi-TEAD (194-411) (UniProt P28347)
Assay: SSM screen, enrichment after two rounds of sorting

| Binder | enrichment score |
| --- | --- |
| B1 | -8.88 |
| B2 | -5.46 |
| B3 | -7.46 |
| B4 | -4.41 |
| B5 | -1.77 |
| B6 | -8.36 |
| B7 | 0.32 |
| B8 | -2.95 |
| B9 | -3.52 |
| B10 | -1.04 |
| B11 | -1.3 |
| B12 | -2.47 |
| B13 | -9.1 |
| B14 | -1.96 |
| B15 | -1.6 |
| B16 | -4.33 |
| B17 | -1.53 |
| B18 | -1.28 |
| B19 | -1.58 |
| B20 | -1.4 |
| B21 | 0.67 |
| B22 | -3.41 |
